According to patent US20150140120, “STABILIZED APTAMERS TO PLATELET DERIVED GROWTH FACTOR AND THEIR USE AS ONCOLOGY THERAPEUTICS” (ARCHEMIX LLC, published 2015):

What was measured:
PDGF-AA [1] = target: T1, PDGF-AA (rat, UniProt P28576 P28576:86-204); test: filter; 1x SHMCK, 0.1 mg/mL tRNA, RT; conditions: chain copies: 2 inferred; label: 5'-32P
Description: (§1) Dot blot binding assays were performed throughout the selection to monitor the protein binding affinity of the pool. Trace ³²P-labeled RNA was combined with PDGF-AA and incubated at room temperature for 30 min in 1× SHMCK plus 0.1 mg/ml tRNA for a final volume of 20 μl. The reaction was added to a dot blot apparatus (Schleicher and Schuell Minifold-1 Dot Blot, Acrylic), assembled (from top to bottom) with nitrocellulose, nylon, and gel blot membranes. RNA that is bound to protein is captured on the nitrocellulose filter, whereas the non-protein bound RNA is captured on the nylon filter.

PDGF-AA short form [2] = target: T2, PDGF-AA short form (human, UniProt P04085-2 P04085-2:87-196); test: filter; 1x SHMCK (Mg, Ca), 0.1 mg/mL tRNA, RT; 2-3 fold lower without tRNA; conditions: tags: Roche Biomedical (short form); chain copies: 2 inferred; label: 5'-32P
Description: as §1

PDGF-AA short form [3] = target: T2, PDGF-AA short form; test: filter; 1x SHMCK, 0.1 mg/mL tRNA, RT; conditions: tags: Roche Biomedical (short form); chain copies: 2 inferred; label: 5'-32P
Description: as §1

PDGF-BB [4] = target: T3, PDGF-BB (human, UniProt P01127 P01127:82-190); test: filter; dot blot; conditions: tags: PeproTech (ERK assay: R&D Systems); chain copies: 2 inferred
T3 sequence (P01127 82-190, one chain of several): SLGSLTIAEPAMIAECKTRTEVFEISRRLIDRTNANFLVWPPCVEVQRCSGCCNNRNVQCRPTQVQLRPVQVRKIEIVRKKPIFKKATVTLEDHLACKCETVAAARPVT
Description: (§2) Protein-associated radio-label is captured on the nitrocellulose membrane while the balance of the radio-label is captured on the nylon membrane. The radio-label data is collected on a phosphorimaging plate.

VEGF = VEGF (UniProt P15692-4 P15692-4:27-191); test: filter; dot blot; conditions: chain copies: 2
Sequence of VEGF (P15692 other isoform, or with tags, fused parts or gaps): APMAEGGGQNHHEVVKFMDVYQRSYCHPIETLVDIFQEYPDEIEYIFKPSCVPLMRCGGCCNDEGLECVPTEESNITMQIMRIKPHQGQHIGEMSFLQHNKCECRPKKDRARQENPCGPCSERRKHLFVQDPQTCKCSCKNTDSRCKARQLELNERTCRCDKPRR
Description: as §2

PDGF-BB [5] = target: T3, PDGF-BB; test: filter; recognises VEGF but not PDGF; conditions: tags: PeproTech (ERK assay: R&D Systems); chain copies: 2 inferred
PDGF-AA short form [6] = target: T2, PDGF-AA short form; test: filter; N.B., no significant binding; conditions: tags: Roche Biomedical (short form); chain copies: 2 inferred; label: 5'-32P
Description: as §1

PDGF-AA [7] = target: T1, PDGF-AA; test: filter; N.B., no significant binding; conditions: chain copies: 2 inferred; label: 5'-32P
Description: as §1

PDGF-BB [8] = target: T3, PDGF-BB; test: filter; all-DNA ARC126 used in the chimera; dot blot; conditions: tags: PeproTech (ERK assay: R&D Systems); chain copies: 2 inferred
Description: as §2

B1: ARX33P1.D2 (ssRNA)
RNA: GGGAAAAGCGAAUCAUACACAAGACCGGGAACUCGGAUUCUUCGCAUGUGGAUGCGAUCAGUAUGCUCCGCCAGAGACCAACCGAGAA
modifications: 2'-F pyrimidines, 2'-OH purines
Question: For B1, which Kd (PDGF-AA [1]) is on record?
Answer: The Kd was 51.7 nM.

Question: What about the Kd (PDGF-AA short form [2]) of the same binder?
Answer: The Kd was 104 nM.

B2: ARX33P1.E10 (ssRNA)
RNA: GGGAAAAGCGAAUCAUACACAAGACCGGAAACUCGGAUUCUUCGCAUGUGGAUGCGAUCAGUAUGCUCCGCCAGAGACCAACCGAGAA
modifications: 2'-F pyrimidines, 2'-OH purines
Question: For B2, which Kd (PDGF-AA short form [3]) is on record?
Answer: The Kd was 133 nM.

Question: What about the Kd (PDGF-AA [1]) of the same binder?
Answer: The Kd was 47.1 nM.

B3: ARX33P1.E5 (ssRNA)
RNA: GGGAAAAGCGAAUCAUACACAAGACCGGGAACUCGGAUUCUUCACAUGUGGAUGUGAUCAGUAUGCUCCGCCAGAGACCAACCGAGAA
modifications: 2'-F pyrimidines, 2'-OH purines
Question: B3 was tested. Which Kd (PDGF-AA short form [3]) did it give?
Answer: Its Kd is 117 nM.

Question: What about the Kd (PDGF-AA [1]) of the same binder?
Answer: The Kd was 57.4 nM.

B4: TK.131.012.A (mixed)
mixed: CAGGCTACGAUGCAGUUUGAGAAGUCGCGCAUCGTAGAGCATCAGAAATGATCCTG
modifications: DNA (PDGF part) with 2'-OMe VEGF part (ARC245); 3' inverted dT
Question: For B4, which Kd (PDGF-BB [4]) is on record?
Answer: Its Kd is about 10 nM.

Question: What about the Kd (VEGF) of the same binder?
Answer: The Kd was about 10 nM.

Question: Does AUGCAGUUUGAGAAGUCGCGCAU (XNA, all 2'-OMe; 3' inverted dT) [ARC245] bind (PDGF-BB [5])?
Answer: Result: no binding

Question: And the Kd (VEGF)?
Answer: The Kd was about 2 nM.

B5: ARX33P1.E11 (ssRNA)
RNA: GGGAAAAGCGAAUCAUACACAAGAGAGUGGAGGAGGUAUGUAUGGUUUGUGCGUCUGGUGCGGUGCUCCGCCAGAGACCAACCGAGAA
modifications: 2'-F pyrimidines, 2'-OH purines
Question: Does B5 bind (PDGF-AA short form [6])?
Answer: Result: no binding

Question: Does B5 bind (PDGF-AA [7])?
Answer: Result: no binding

B6: ARX33P1.D1 (ssRNA)
RNA: GGGAAAAGCGAAUCAUACACAAGAUCGCCAGGAGCAAAGUCACGGAGGAGUGGGGGUACGAAUGCUCCGCCAGAGACCAACCGAGAA
modifications: 2'-F pyrimidines, 2'-OH purines
Question: Does B6 bind (PDGF-AA short form [6])?
Answer: Result: no binding

Question: Does B6 bind (PDGF-AA [7])?
Answer: Result: no binding

Question: CAGGCTACGCGTAGAGCATCATGATCCTG (ssDNA, 3' inverted dT (SEQ ID NO: 8)) [deoxyARC126] was tested. Which Kd (PDGF-BB [8]) did it give?
Answer: Its Kd is about 0.1 nM.

B7: TK.131.012.B (mixed)
mixed: CAGGCTACGUGCAGUUUGAGAAGUCGCGCACGTAGAGCATCAGAAATGATCCTG
modifications: DNA (PDGF part) with 2'-OMe VEGF part (ARC245 lacking first mA-mU pair); 3' inverted dT
Question: Which results are given for B7?
Answer: Kd (PDGF-BB [4]): ~10 nM; Kd (VEGF): ~5 nM
